This test deals with His6-GFP-nCLU. Put plainly: AlphaScreen or HTRF; 30 nM His6-GFP fusion protein with 0-60 nM biotinylated GST-IPO13; triplicates, sigmoidal association curves.

B1: biotinylated GST-IPO13 (natural protein)
chain: MERREEQLGAAGAGAAPALDFTVENVEKALHQLYYDPNIDNKNLAQKWLMQAQVSPQAWHFSWQLLQPDKVPEIQYFGASALHIKISRYWSDIPTDQYESLKAQLFTQITRFASGSKIVLTRLCVALASLALSMMPDAWPCAVADMVRLFQAEDSPVDSQGRCLALLELLTVLPEEFQTSRLPQYRKGLVRTSLAVECGTVFPLLEQLLQQPSSPSCVRQKVLKCFSSWVQLEVPLQDCEALIQAAFAALQDSELFDSSVEAIVNAISQPDAQRYVNTLLKLIPLVLGLQEQLRQAVQNGDMETSHGICRIAVALGENHSRALLDQVEHWQSFLALVNMIMFCTGIPGHYPVNETTSSLTLTFWYTLQDDILSFEAEKQAVYQQVYRPVYFQLVDVLLHKAQFPSDEEYGFWSSDEKEQFRIYRVDISDTLMYVYEMLGAELLSNLYDKLGRLLTSSEEPYSWQHTEALLYGFQSIAETIDVNYSDVVPGLIGLIPRISISNVQLADTVMFTIGALSEWLADHPVMINSVLPLVLHALGNPELSVSSVSTLKKICRECKYDLPPYAANIVAVSQDVLMKQIHKTSQCMWLMQALGFLLSALQVEEILKNLHSLISPYIQQLEKLAEEIPNPSNKLAIVHILGLLSNLFTTLDVSHHEDDHEGPELRKLPVPQGPNPVVVVLQQVFQLIQKVLSKWLNDAQVVEAVCAIFEKSVKTLLDDFAPMVPQLCEMLGRMYSTVPQASALDLTRQLVHIFAHEPAHFPPIEALFLLVTSVTLSLFQQGPRDHPDIVDSFMQLLAQALKRKPDLFLCERLDVKAVFQCAVLALKFPEAPTVKASCGFFTELLPRCGEIESVGKVVQEDGRMLLIAVLEAIGGQASRSLMDCFADILFALNKHCFSLLSMWIKEALQPPGFPSARLSPEQKDTFSQQILRERVNKRRVKEMVKEFTLLCRGLHGTDYTADY
modifications: biotinylated
By Kd is commonly meant the concentration at which binding is half-saturated. The low end stands for a tighter complex, the high end for a looser complex. For the molecule B1, the Kd worked out at 2.8 nM.

(Values after publication PMC9857240.)
